For series [1], the system named is COc1cc(O)c(CC=C(C)C)c(O)c1C(=O)/C=C/c1ccc(O)cc1. Nature of the series: purified protein. The settings on record: 50 mM sodium citrate, pH 6.0, 35°C, 2% v/v ethanol, 0.05 mg/mL enzyme, apparent because of low XN solubility, water is co-substrate.
Series [2] has as its target T1, FsKHS (Fusarium phaseoli, UniProt Q00870).
T1 construct: gene khs; 19-residue signal peptide cleaved between Ala19 and Ser20; C-terminal His10 tag
The series is described as follows: HPLC conversion assay with P. pastoris culture supernatant. Particulars: 2 mM kievitone, 35°C, culture supernatant of P. pastoris expressing FsKHS, mere turnover. Format: biochemical.

For orientation: Km means the substrate concentration at which the rate is half of its maximum. A word on the kcat: it is the maximal rate divided by the concentration of active sites.

T1 sequence (Q00870 20-350): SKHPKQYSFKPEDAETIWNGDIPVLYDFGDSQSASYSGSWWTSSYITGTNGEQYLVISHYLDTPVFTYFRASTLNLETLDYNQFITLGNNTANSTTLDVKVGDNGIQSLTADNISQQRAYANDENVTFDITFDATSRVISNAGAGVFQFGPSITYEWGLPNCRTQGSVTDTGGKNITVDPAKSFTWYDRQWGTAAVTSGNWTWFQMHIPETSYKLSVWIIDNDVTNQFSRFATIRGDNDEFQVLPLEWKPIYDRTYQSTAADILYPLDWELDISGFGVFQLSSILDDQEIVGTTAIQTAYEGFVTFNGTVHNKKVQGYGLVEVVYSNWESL

As to NhKHS (Fusarium vanettenii 77-13-4), in series [1], the Michaelis-Menten constant (Km) turned out to be 980 ± 130 µM and the kcat turned out to be 4.77 ± 0.33 s⁻¹.

For the molecule `CC(C)=CCc1c(O)cc(O)c2c1OCC(c1ccc(O)cc1O)C2=O` (stereo not drawn) [KV, kievitone], the “% substrate converted in 3 h” value in series [2] is given as ~ 89%.

The record behind these values is PMC5805349, “Recombinant expression, purification and biochemical characterization of kievitone hydratase from Nectria haematococca” (PLoS ONE, 2018).
